This series can be described thus: yeast display, Sf9 membrane polyspecificity reagent, FACS + sequencing; frameworks hold sequencing errors. The gist of the method: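 Polyreactivity labels are assigned by the sorting gate from which each nanobody was recovered. The gates were low and high (top ~1%), set on anti-HA fluorescence for expression and streptavidin fluorescence for reagent binding. Before sorting, galactose-induced (36–48 hours) yeast display cells were stained for 1 hour at 4 °C with 10% biotinylated, detergent-solubilized Sf9 membrane reagent.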
On to “QVQLVESGGGLVQAGGSLRLSCAASGSIFSYYAMGWYRQAPGKERELVAGITWSGGRTYYADSVKGRFTISRDNAKNTVYLQMNSLKPEDTAVYYCAAVQLFSRRSRYDYWGQGTQVTVSS”, for which the “polyreactivity (PSR sort gate)” value is on record as “high polyreactivity”.
As for “QVQLVESGGGLVQAGGSLRLSCAASGSIFSYYAMGWYRQATGKERELVAAITRGGTTYYAVCVKGRFTISRDNAKNTVYLQMNSLKPDDTAVYYCAVYYYSGTAGYRYGYWGQGTQVTVSS”, the entry is “high polyreactivity”; as for “QVQLVESGGGLVQAGGSLRLSCAASGSIFSYYPMGWYRPAPGKERELVAAISWSGGSTYYADSVKGRFTISRDNAKNTVYLQMNSLKPEDTAVYYCAAQSWSGDSSFWRYDYWGQGTQVTVSS”, “low polyreactivity”.
The result for “QVQLVESGGGLVQAGGSLRLSCAASGSIFTANAMGWYRQAPGKERELVAAISRSGGRTYYADSLKGRFTISRDNEKNTVYLQWKSLKPEDTAVYYCNVGRFNTSGYDYWGLGTQVTVSS” reads “high polyreactivity”; that for “QVQLVESGGGLVQAGGSLRLSCAASGSIFTANAMGWYRQAPGKERELVAAISRSGGRTYYADSVKGRFTISRDNAKNTVYLQMNSLKPEDTAVYYCNVGRFNTSGYDYWGQGTQVTVSS”, “high polyreactivity”; that for “QVQLVESGGGLVQAGGSLRLSCAASGSIFTAYAMGWYRQAPGKERELVAAISYGGGSTYYADSVKGRFTISRDNAKNTVYLQMNSLKPEDTAVYYCAAASSGEYGYWGQGTLVTVSS”, “low polyreactivity”.
As for “QVQLVESGGGLVQAGGSLRLSCAASGSIFTAYTMGWYRQAPGKERELVAVISDSSGRTYYADSVKGRFTISRDNAKNTVYLQMNSLKPEVTAVYYCAAEYSDIYEYWGQGTQVTVSS”, the entry is “low polyreactivity”; as for “QVQLVESGGGLVQAGGSLRLSCAASGSIFTDYTMGWYRQAPGKERELVAAISWIGDSTDYADSVKGRFTISRDNAKNTVYLQMNSLKPEDTAVYYCAKSRAGRYNDYDYWGQGTQVTVSS”, “low polyreactivity”.
As for “QVQLVESGGGLVQAGGSLRLSCAASGSIFTEYAMGWYIQAPGKERELVAAISWSGATTYYADSVKGRFTISRDNAKNTVYLQMNSLKPEDTAVYYCAARWANRSYEYWGQGTQVTVSS”, the “polyreactivity (PSR sort gate)” value was “low polyreactivity”.
As for “QVQLVESGGGLVQAGGSLRLSCAASGSIFTEYAMGWYRKAPGKERELVAVITLRGGSTYYADSVKGRFTISRDNAMNTVYLQMNSLKPEDTAVYYCAAVTLVSFWFDYWGQGTQVTVSS”, the entry is “low polyreactivity”.
Take “QVQLVESGGGLVQAGGSLRLSCAASGSIFTFNAMGWYRQAPGKERELVAAINWSGTRTYYADSVKGRFTISRDNAKNTVYLQMNSLKPEDTAVYYCNTRPSKRYGYDYWGQGTQVTVSS”: the “polyreactivity (PSR sort gate)” value was “high polyreactivity”.
For the sequence “QVQLVESGGGLVQAGGSLRLSCAASGSIFTFYTMGWYRQAPGKERELVAAISQTGGRTYYADSVKGRFTISRDNAKNTVYLQMNSLKPEDTAVYYCAARSKRLAHDYWGQGTQVTVSS”, the “polyreactivity (PSR sort gate)” value is reported as “high polyreactivity”.
Take “QVQLVESGGGLVQAGGSLRLSCAASGSIFTGNAMGWYRQAPGKERELVAAITNGGITNYADSVKGRFTISRDNAKNTVYLQMNSLKPEDTAVYYCAADYVDFYSFRRFDYWGQGTQVTVSS”: the “polyreactivity (PSR sort gate)” value is reported as “low polyreactivity”.
As for “QVQLVESGGGLVQAGGSLRLSCAASGSIFTGYAMGWYRPAPGKERELVAANRYTTTSTYYADSVKGRFTISRDNAKNTVYLQMHSLKPEDTAVYYCKGWRGTYSGDYWGQGTQVTVSS”, the entry is “high polyreactivity”.
As for “QVQLVESGGGLVQAGGSLRLSCAASGSIFTGYAMGWYRQAPGKDRELVAAISWRGGGTYYADSVQGRFTISRDNAKNTVYLQMNSQKPEDTAVYDCAAVTKFGQYAPGSKGYGYWGQATQVTVSS”, the entry is “low polyreactivity”.
For the sequence “QVQLVESGGGLVQAGGSLRLSCAASGSIFTGYAMGWYRQAPGKDRELVAGISWGGTSTYYADSVKGRFTISRDTAKNTVYLQMNSLKPEDTAVYYCSAVRGKYGYLTTPYWFDYWGQGTQVTVSS”, the “polyreactivity (PSR sort gate)” value was “high polyreactivity”.
As to “QVQLVESGGGLVQAGGSLRLSCAASGSIFTGYTMGWYRPAPGKEREFVAAIRATGGSTYYADSVKGRFTISRDNAKNTVYLQMNSLKPEDTAVYYCAVRSGVGSVRKRYGYWGQGTQVTVSS”, the “polyreactivity (PSR sort gate)” value was “high polyreactivity”.
For “QVQLVESGGGLVQAGGSLRLSCAASGSIFTHNAMGWYRQAPGKERELVAAISSGGSTNYADSVKGPFTISRDNAKNTVYLQMNSLKPEDTAVYYCAKSIDGWYWRRRRYDYWGQGTQVTVSS”, the “polyreactivity (PSR sort gate)” value is “low polyreactivity”.
For the sequence “QVQLVESGGGLVQAGGSLRLSCAASGSIFTHYPMGWYRQAPGKERELVAAISRRGGSTYYADSVKGRFTISRDNAKNTVYLQMNSLKPEDTAVYYCAKSPDTAKEYDYWGQGTQVTVSS”, the “polyreactivity (PSR sort gate)” value is “high polyreactivity”.
The result for “QVQLVESGGGLVQAGGSLRLSCAASGSIFTKYAMGWYRQAPGKEREFVAAITLSGGSTYYADSVKGRFTISRDNAKNTVYLQMNSLKPEDTAVYYCNAAYTYVTAWYYYWGQGTQVTVSS” reads “high polyreactivity”.
As for “QVQLVESGGGLVQAGGSLRLSCAASGSIFTLYAMGWYRQAPGKEREFVAGISFSTGRTYYADSVKGRFSISRDNAKNTVYLQMNSLKPEDTAVYYCAAYVSHYWYGVYRDGYWGQGTQVTVSS”, the “polyreactivity (PSR sort gate)” value was “low polyreactivity”.
As for “QVQLVESGGGLVQAGGSLRLSCAASGSIFTNAMGWYRQAPGKERELVAAISSSGGSTYYADSVKGRFTISRDNAKNTVYLQMNSLKPDDTAVYYCAADHYGCRDFWGQGSQVTVSS”, the entry is “low polyreactivity”; as for “QVQLVESGGGLVQAGGSLRLSCAASGSIFTNAMGWYRQAPGKETELVAAISYSGGSTYYADSVKGRFTISRDNAKNTVYLQMNSLKREDTAVYYCAAEAWFDGIWGDYWGQGTQVTVSS”, “high polyreactivity”.
The result for “QVQLVESGGGLVQAGGSLRLSCAASGSIFTPYAMGRYRQAPGKERELVAAISRSGGRTYYADSVKGRFTISRDNAKNTVYLQMNSLKPEDTAVYYCNAGAGQRVSGHSFEYWGQGTQVTVSS” reads “high polyreactivity”.
“QVQLVESGGGLVQAGGSLRLSCAASGSIFTPYAMGWYRQAPGKESELVAAIRSGTSTNYADSVKGRFTISRDNAKNTVYLQMNSLKPEDTAVYYCAAVYWSRFYVRYDYWGQGTQVTVSS”: the “polyreactivity (PSR sort gate)” value is “high polyreactivity”.
The result for “QVQLVESGGGLVQAGGSLRLSCAASGSIFTPYTMGWYRQAPGKERELVAAITGSAGSTYYADSVKGRFTISRDNAKNTVYLQMNSLKPEDTAVYYCAAAVWGVYQWYYYWGQGTQVTVSS” reads “high polyreactivity”; that for “QVQLVESGGGLVQAGGSLRLSCAASGSIFTPYVMGWYRQAPGKEREFVAAITQRGGRTYYADSVKGRFTISRDNAKNTVYLQMNSLKPEDTAVYYCAKTSVSRTYHRSAYDYWGQGTQVTVSS”, “high polyreactivity”.
For the sequence “QVQLVESGGGLVQAGGSLRLSCAASGSIFTRNAMGWYRPAPGKERELVAAIRWNGGRTYYADSVKGRFTISRDNAKNTVYLQMNSLKPEDTAVYYCAADYYQRRYVPEYDYWGQGTQVTVSS”, the “polyreactivity (PSR sort gate)” value is “low polyreactivity”.
As for “QVQLVESGGGLVQAGGSLRLSCAASGSIFTRYAMGWYRQAPGKERELVAAIRTSGGSTYYADSVKGRFTISRDNAKNTVYLQMNSLKPEDTAVYYCARRYYKSNFYYWGQGTQVTVSS”, the “polyreactivity (PSR sort gate)” value is given as “high polyreactivity”.
The result for “QVQLVESGGGLVQAGGSLRLSCAASGSIFTRYAMGWYRQAPGKERELVAAITASGGRTYYADSVKGRFTISRDNAKNTVYLQMNSLKPEDTAVYYCNTYWRFTSQLPYDYWGQGTQVTVSS” reads “high polyreactivity”.
As for “QVQLVESGGGLVQAGGSLRLSCAASGSIFTRYTMGWDRQAPRKERELVATNSSRGDGTYYADSVKGRFTISRDNAKNTVYLQMNSLKPEDTAVYYCSARYRRVLSGYGYWGHGTQVTVSS”, the entry is “high polyreactivity”; as for “QVQLVESGGGLVQAGGSLRLSCAASGSIFTRYVMGWYRQAPGKERELVAAISGRGSSTYYADSVKGRFTISRDNAKNTVYLQMNSLKPEDTAVYYCAAEIVVFYSEGQRNTFYYWGQGTQVTVSS”, “high polyreactivity”.
Take “QVQLVESGGGLVQAGGSLRLSCAASGSIFTSNVMAWYRQAPGKERELVAAITITGTTTYADSVKGRFTISRDNAKNTVYLQMNSLIPEDTAVYYCAKDPVELSPADWRADYDYWGQGTQVTVSS”: the “polyreactivity (PSR sort gate)” value is listed as “low polyreactivity”.
For the sequence “QVQLVESGGGLVQAGGSLRLSCAASGSIFTTYAMGWYIQAPGKERELVAVISRRGGSTYYADSVKGRFTISRDNAKNTDYLQMNSLKPEDTAVYFCNAAYVWYRIFVRRDYWGQGTQVTVSS”, the “polyreactivity (PSR sort gate)” value was “high polyreactivity”.
As to “QVQLVESGGGLVQAGGSLRLSCAASGSIFTTYAMGWYREAPGKERELVAAITDTSSTNYADSVKGRFTISRDNAKKTVFLQMNSLKPEDTAVYYCAVDLGYEYDWGQGTQVTVSS”, the “polyreactivity (PSR sort gate)” value was “low polyreactivity”.
As for “QVQLVESGGGLVQAGGSLRLSCAASGSIFTTYAMGWYRQAPGKERELVAAISSGGGTNYADSVKGRFTISRDNAKNTVYLQMNSLKPEDTAVYYCNKRYYRLQLHNAYGATPRRNYWGQGTQVTVSS”, the “polyreactivity (PSR sort gate)” value is reported as “low polyreactivity”.
Take “QVQLVESGGGLVQAGGSLRLSCAASGSIFTVNAMGWYRQAPGKERELVAAISSGGSTHYADSVKGRFTISRDNAKNTVYLQMNSLKPEDTAVYYCAAEVSYYLNEFDYWGQGTQVTVSS”: the “polyreactivity (PSR sort gate)” value is recorded as “low polyreactivity”.
As for “QVQLVESGGGLVQAGGSLRLSCAASGSIFTVYAMGWYRQAPGKERELVASISKSGGSTYYADSVKGRFTISRDNAKNTVYLQMNSLKPEDTAVYYCAAESGRTYSHRHYDSWGQGTQVTVSS”, the entry is “low polyreactivity”.
With “QVQLVESGGGLVQAGGSLRLSCAASGSIFTVYGMGWYRQAPGKERELVAAISRSGGSTYYADSVKGRFTISRDNAKNTVYLLMNSLKPEDTAVYYCAADVYRTWFWWFDYWGQGTQVTVSS”, the “polyreactivity (PSR sort gate)” value is on record as “high polyreactivity”.
Turning to “QVQLVESGGGLVQAGGSLRLSCAASGSIFTWNAMGWYSQAPGKERELVAAISWIGDSTYYADSVKGRFTISRDNAKNTVYLQMNSLKPEDTAVYYCAAEYAQGSRELESWGQGTQVTVSS”, the “polyreactivity (PSR sort gate)” value is “low polyreactivity”.
As for “QVQLVESGGGLVQAGGSLRLSCAASGSIFTWYAMGWYRQAPGKERELVAAITTSGGSTYYADSVKGRFTISRDNAKNTVYLQMNSLKPEDTAVYYCAKDGDYLFYYYGYDYWGQGTQVTVSS”, the “polyreactivity (PSR sort gate)” value was “low polyreactivity”.

These data come from the nanobody polyreactivity screen of Harvey et al. (2022).
